Measurements published in paper PMC9537594.

Key:
[1] = biological target: cross-linked His-CAhex, 6-His-CA(A14C/E45C/W184A/M185A) (HIV-1); assay: SPR; Reichert 4-SPR; cross-linked His-CAhex immobilised on an NTA chip via the C-terminal His-tag; peptides 3.9 µM to 2 mM; 0.01 M HEPES pH 7.4, 0.15 M NaCl, 0.05% Surfactant P20; Scrubber 2.0, simple kinetic model
[2] = biological target: Cross-linked His-CAhex: disulfide-stabilized hexamer of 6-His-CA(A14C/E45C/W184A/M185A) (HIV-1); assay: SPR; Reichert 4-SPR; cross-linked His-CAhex immobilised on an NTA chip via the C-terminal His-tag; peptides 3.9 μM to 2 mM; 0.01 M HEPES pH 7.4, 0.15 M NaCl, 0.05% v/v Surfactant P20; simple kinetic model

Binder	Kd [1]	Kd [2]
GPLLPGQSFGGPSVS [SEC24C228-242 peptide]	1070 µM	
GPLLPGQSFGGPSVS [SEC24C_(228-242) 15-mer FG peptide]		1.07 mM
NSPSGVFTFGANSST [NUP1531409-1423 peptide]	131 µM	
